Measured values as given in US20020044944A1.

B1: shFas(nd29)-hinge (receptor)
chain: TQNLEGLHHDGQFCHKPCPPGERKARDCTVNGDEPDCVPCQEGKEYTDKAHFSSKCRRCRLCDEGHGLEVEINCTRTQNTKCRCKPNFFCNSTVCEHCDPCTKCEHGIIKECTLTSNTKCKEEGSRSNEPKSCDKTHTCPPCP
B2: shFas(nd29)-hinge, higher molecular weight gel filtration fraction (fractions 1 and 2, seemed to correspond to a dimer) (receptor)
chain: B1 chain

Experiments:
mouse Fas ligand (mouse) = mouse Fas ligand (mouse) (UniProt P41047); experiment: cell-based or functional assay
Chain of UniProt P41047 (P41047 whole entry): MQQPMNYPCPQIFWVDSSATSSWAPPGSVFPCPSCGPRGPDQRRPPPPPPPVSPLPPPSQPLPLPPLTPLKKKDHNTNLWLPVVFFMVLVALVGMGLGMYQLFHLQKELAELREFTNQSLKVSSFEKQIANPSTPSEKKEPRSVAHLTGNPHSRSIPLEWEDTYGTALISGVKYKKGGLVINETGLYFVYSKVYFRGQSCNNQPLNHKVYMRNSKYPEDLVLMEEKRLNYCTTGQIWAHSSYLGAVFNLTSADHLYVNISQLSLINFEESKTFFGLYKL

human Fas ligand (human) = human Fas ligand (human) (UniProt P48023); experiment: cell-based or functional assay
Chain of UniProt P48023 (P48023 whole entry): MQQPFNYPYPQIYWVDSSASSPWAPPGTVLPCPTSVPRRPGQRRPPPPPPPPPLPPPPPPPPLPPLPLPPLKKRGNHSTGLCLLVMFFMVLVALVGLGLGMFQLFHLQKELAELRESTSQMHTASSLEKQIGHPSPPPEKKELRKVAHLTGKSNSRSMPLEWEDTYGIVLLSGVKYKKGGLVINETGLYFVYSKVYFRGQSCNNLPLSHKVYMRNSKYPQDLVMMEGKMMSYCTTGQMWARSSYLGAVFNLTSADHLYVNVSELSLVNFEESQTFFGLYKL

Binder | specific cytotoxicity inhibition activity (51Cr release; FLm14 effector cells, W4 target cells; FIG. 12) (times higher than hFas-Fc) (mouse Fas ligand (mouse)) | specific cytotoxicity inhibition activity (51Cr release; 1A12 effector cells, WC8 target cells; FIG. 11) (times higher than hFas-Fc) (human Fas ligand (human)) | cytotoxicity inhibition activity by the assay described in Inventive Example 8 (human Fas ligand (human); scale: times stronger than the lower molecular weight fraction)
B1 | 3 to 10 | 3 to 10 | 
B2 |  |  | > 50
